Test results from PMC8514465, “Functional and structural analysis of catabolite control protein C that responds to citrate” (Scientific Reports, 2021).

Experiments:
[1] = target: T1, BaCcpC-FL (Bacillus velezensis, UniProt A7Z428); assay: EMSA with biotin-labelled citB promoter DNA; assay type: binding; settings: 40 μM protein, 800 nM citB promoter DNA, 0-70 μM citrate, 30 min, room temperature; inducer
T1 construct: gene RBAM_013910; full length, residues 1-293; N-terminal His tag removed by TEV; E. coli BL21(DE3); dimer (~60 kDa) by SEC-MALS
T1 sequence (A7Z428 1-293): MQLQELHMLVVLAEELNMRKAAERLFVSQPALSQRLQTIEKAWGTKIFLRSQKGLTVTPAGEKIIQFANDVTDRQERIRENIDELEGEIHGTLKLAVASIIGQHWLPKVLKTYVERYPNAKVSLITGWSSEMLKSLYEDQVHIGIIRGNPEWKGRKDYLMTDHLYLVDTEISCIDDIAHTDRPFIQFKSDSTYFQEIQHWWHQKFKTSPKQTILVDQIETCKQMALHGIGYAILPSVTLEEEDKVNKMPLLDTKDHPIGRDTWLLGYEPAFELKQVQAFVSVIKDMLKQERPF

[2] = target: the molecule itself; assay: SEC-MALS; BaCcpC-FL not incubated with citrate; Superdex 200 Increase 10/300 GL, 295 K, 20 mM Tris pH 8.0, 150 mM NaCl, 2 mM 2-mercaptoethanol
[3] = target: the molecule itself; assay: crystal structure; BaCcpC-IBD with citrate, 2.3 Å, space group C2, SAD phasing; crystals from PEG 6000, MPD, 0.1 M HEPES pH 7.5, 287 K

Molecule: O=C(O)CC(O)(CC(=O)O)C(=O)O [citrate]
- EMSA with biotin-labelled citB promoter DNA [1]: the presence of citrate slightly suppressed the binding of CcpC to citB-P

B1: full-length catabolite control protein C from Bacillus amyloliquefaciens (natural protein, UniProt A0A9P1JGF9 1-293, looked up)
chain: MQLQELHMLVVLAEELNMRKAAERLFVSQPALSQRLQTIEKAWGTKIFLRSQKGLTVTPAGEKIIQFANDVTDRQERIRENIDELEGEIHGTLKLAVASIIGQHWLPKVLKTYVERYPNAKVSLITGWSSEMLKSLYEDQVHIGIIRGNPEWKGRKDYLMTDHLYLVDTEISCIDDIAHTDRPFIQFKSDSTYFQEIQHWWHQKFKTSPKQTILVDQIETCKQMALHGIGYAILPSVTLEEEDKVNKMPLLDAKDHPIGRDTWLLGYEPAFELKQVQAFVSVVKDMLKQERPF
notes: Catabolite control protein C (CcpC), LysR-type transcriptional regulator, Bacillus amyloliquefaciens, residues 1-293, amplified from genomic DNA; PDB 7DMW holds only residues 88-293; also called BaCcpC-FL; BaCcpC; source: E. coli BL21 (DE3), purified (Ni-NTA, TEV cleavage, HiTrap-Q, Superdex 200); not shown: His6, N-terminal, cleaved
- stoichiometry N [2]: 2

B2: C-terminal inducer-binding domain of Bacillus amyloliquefaciens CcpC (domain or fragment, UniProt A0A9P1JGF9 88-293, looked up)
chain: EIHGTLKLAVASIIGQHWLPKVLKTYVERYPNAKVSLITGWSSEMLKSLYEDQVHIGIIRGNPEWKGRKDYLMTDHLYLVDTEISCIDDIAHTDRPFIQFKSDSTYFQEIQHWWHQKFKTSPKQTILVDQIETCKQMALHGIGYAILPSVTLEEEDKVNKMPLLDAKDHPIGRDTWLLGYEPAFELKQVQAFVSVVKDMLKQERPF
modifications: selenomethionine-substituted (Se-Met protein used for SAD phasing)
notes: Crystallised in complex with citrate; five molecules in the asymmetric unit; Cloned into pPROEX-HTA; also called BaCcpC-IBD; CcpC-IBD; source: E. coli BL21 (DE3), purified (Ni-NTA, TEV cleavage, HiTrap-Q, Superdex 200) with 10 mM sodium citrate throughout; not shown: His6, N-terminal, cleaved
- binding result [3]: binds
